From patent US11932673

What was measured:
β-galactosidase = experiment: monoclonal phage TRF
trypsin = experiment: monoclonal phage ELISA

β-galactosidase, sequence (P00722 2-1024): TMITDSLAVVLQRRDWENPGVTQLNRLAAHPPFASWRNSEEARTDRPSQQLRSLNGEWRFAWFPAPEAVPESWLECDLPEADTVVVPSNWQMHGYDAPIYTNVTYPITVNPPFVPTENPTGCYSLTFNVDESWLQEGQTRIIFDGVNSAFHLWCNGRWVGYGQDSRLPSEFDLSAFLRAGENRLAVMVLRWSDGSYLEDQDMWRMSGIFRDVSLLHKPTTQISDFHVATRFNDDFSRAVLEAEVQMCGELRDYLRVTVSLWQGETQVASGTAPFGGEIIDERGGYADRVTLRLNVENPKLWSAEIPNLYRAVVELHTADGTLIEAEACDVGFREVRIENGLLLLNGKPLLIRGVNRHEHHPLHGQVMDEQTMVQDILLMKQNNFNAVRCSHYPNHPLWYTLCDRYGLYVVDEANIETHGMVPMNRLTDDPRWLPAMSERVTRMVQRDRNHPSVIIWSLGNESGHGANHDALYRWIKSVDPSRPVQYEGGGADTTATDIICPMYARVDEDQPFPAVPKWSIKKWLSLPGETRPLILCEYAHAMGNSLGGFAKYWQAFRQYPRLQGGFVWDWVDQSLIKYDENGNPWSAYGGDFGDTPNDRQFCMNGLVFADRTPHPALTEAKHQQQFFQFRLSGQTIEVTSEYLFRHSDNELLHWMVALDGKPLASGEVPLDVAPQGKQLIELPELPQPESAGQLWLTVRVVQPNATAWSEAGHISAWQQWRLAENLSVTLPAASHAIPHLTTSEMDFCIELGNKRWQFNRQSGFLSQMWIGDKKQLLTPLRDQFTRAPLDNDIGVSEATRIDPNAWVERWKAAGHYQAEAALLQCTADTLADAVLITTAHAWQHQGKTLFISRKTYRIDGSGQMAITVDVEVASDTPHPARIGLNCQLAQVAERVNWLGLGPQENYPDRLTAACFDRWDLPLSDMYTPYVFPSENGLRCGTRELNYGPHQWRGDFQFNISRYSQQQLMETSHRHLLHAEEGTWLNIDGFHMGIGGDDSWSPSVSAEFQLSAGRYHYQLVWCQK

Row | TRF signal (β-galactosidase) | ELISA signal (trypsin) | Binder
1 | 518000 |  | KB_A12_B-gal_H03 (scFv, V domains shown) VH: EVQLVESGGGLVRPGGSLRLSCAASGFTFSSYAMSWVRQAPGKGLEWVSAISGSGGSTYYADSVKGRFTISRDNTKNSLYLQMTSLRADDTAFYYCVKDFGPGYGTGWFDYWGPGTLVTVSS VL: AVNWYQQLPGKAPKLLIYAAGRCNQTMSIRRPCKQDSDCLAGCVCGPNGFCGANSGVSDRFSAAKSGTSASLAINGLRSEDEADYYCAAWDDSLNGYVFGTGTKLTVLG
2 | 258000 |  | KB_A12_B-gal_F09 (scFv, V domains shown) VH: EVQLVESGGGLVRPGGSLRLSCAASGFTFSSYAMSWVRQAPGKGLEWVSAISGSGGSTYYADSVKGRFTISRDNTKNSLYLQMTSLRADDTAFYYCVKDFGPGYGTGWFDYWGPGTLVTVSS VL: AVNWYQQLPGKAPKLLIYAAGRCIATSHIRRHCKQDSDCLAGCVCGPNGFCGANSGVSDRFSAAKSGTSASLAINGLRSEDEADYYCAAWDDSLNGYVFGTGTKLTVLG
3 | 246000 |  | KB_A12_B-gal_F07 (scFv, V domains shown) VH: EVQLVESGGGLVRPGGSLRLSCAASGFTFSSYAMSWVRQAPGKGLEWVSAISGSGGSTYYADSVKGRFTISRDNTKNSLYLQMTSLRADDTAFYYCVKDFGPGYGTGWFDYWGPGTLVTVSS VL: AVNWYQQLPGKAPKLLIYAAGRCRTTANVRRHCKQDSDCLAGCVCGPNGFCGANSGVSDRFSAAKSGTSASLAINGLRSEDEADYYCAAWDDSLNGYVFGTGTKLTVLG
4 | 62000 |  | KB_A12_B-gal_H07 (scFv, V domains shown) VH: EVQLVESGGGLVRPGGSLRLSCAASGFTFSSYAMSWVRQAPGKGLEWVSAISGSGGSTYYADSVKGRFTISRDNTKNSLYLQMTSLRADDTAFYYCVKDFGPGYGTGWFDYWGPGTLVTVSS VL: AVNWYQQLPGKAPKLLIYAAGRCTQTALIRRRCKQDSDCLAGCVCGPNGFCGANSGVSDRFSAAKSGTSASLAINGLRSEDEADYYCAAWDDSLNGYVFGTGTKLTVLG
5 | 531000 |  | KB_A12_B-gal_F11 (scFv, V domains shown) VH: EVQLVESGGGLVRPGGSLRLSCAASGFTFSSYAMSWVRQAPGKGLEWVSAISGSGGSTYYADSVKGRFTISRDNTKNSLYLQMTSLRADDTAFYYCVKDFGPGYGTGWFDYWGPGTLVTVSS VL: AVNWYQQLPGKAPKLLIYAAGRCHETAQIRRRCKQDSDCLAGCVCGPNGFCGANSGVSDRFSAAKSGTSASLAINGLRSEDEADYYCAAWDDSLNGYVFGTGTKLTVLG
6 | 501000 |  | KB_A12_B-gal_H02 (scFv, V domains shown) VH: EVQLVESGGGLVRPGGSLRLSCAASGFTFSSYAMSWVRQAPGKGLEWVSAISGSGGSTYYADSVKGRFTISRDNTKNSLYLQMTSLRADDTAFYYCVKDFGPGYGTGWFDYWGPGTLVTVSS VL: AVNWYQQLPGKAPKLLIYAAGRCEQTSVIRRHCKQDSDCLAGCVCGPNGFCGANSGVSDRFSAAKSGTSASLAINGLRSEDEADYYCAAWDDSLNGYVFGTGTKLTVLG

The remaining lines, values behind:

Row | Binder | TRF signal (β-galactosidase) | ELISA signal (trypsin)
7 | E03 (KnotBody with EET 5-3 framing) (scFv, V domains shown) VH: EVQLVESGGGLVRPGGSLRLSCAASGFTFSSYAMSWVRQAPGKGLEWVSAISGSGGSTYYADSVKGRFTISRDNTKNSLYLQMTSLRADDTAFYYCVKDFGPGYGTGWFDYWGPGTLVTVSS VL: AVNWYQQLPGKAPKLLIYAAGGCGPNGFCGSGSDGGVCPRILMRCKQDSDCLAGCGRNSGIPERFSGSKSGHTATLTISRVEAGDEADYYCQVWDSSSDHVLFGGGTKLTVLG |  | 82500
8 | C09 (KnotBody with EET 5-3 framing) (scFv, V domains shown) VH: EVQLVESGGGLVRPGGSLRLSCAASGFTFSSYAMSWVRQAPGKGLEWVSAISGSGGSTYYADSVKGRFTISRDNTKNSLYLQMTSLRADDTAFYYCVKDFGPGYGTGWFDYWGPGTLVTVSS VL: SEAPRQRVTITCGGKRCGPNGFCGSGSDGGVCPRILMRCKQDSDCLAGCTSNWYQQKPGQAPVLVVQDDSVRPSGIPERFSGSNSGNTATLTISRVEAGDGADYYCQVWDISSDLGVFGGGTKLTVLG |  | 9820
9 | KB_A12_B-gal_F03 (scFv, V domains shown) VH: EVQLVESGGGLVRPGGSLRLSCAASGFTFSSYAMSWVRQAPGKGLEWVSAISGSGGSTYYADSVKGRFTISRDNTKNSLYLQMTSLRADDTAFYYCVKDFGPGYGTGWFDYWGPGTLVTVSS VL: AVNWYQQLPGKAPKLLIYAAGRCLATTSIRRHCKQDSDCLAGCVCGPNGFCGANSGVSDRFSAAKSGTSASLAINGLRSEDEADYYCAAWDDSLNGYVFGTGTKLTVLG | 289000 | 
10 | KB_A12_B-gal_E05 (scFv, V domains shown) VH: EVQLVESGGGLVRPGGSLRLSCAASGFTFSSYAMSWVRQAPGKGLEWVSAISGSGGSTYYADSVKGRFTISRDNTKNSLYLQMTSLRADDTAFYYCVKDFGPGYGTGWFDYWGPGTLVTVSS VL: AVNWYQQLPGKAPKLLIYAAGRCRETSSLRRPCKQDSDCLAGCVCGPNGFCGANSGVSDRFSAAKSGTSASLAINGLRSEDEADYYCAAWDDSLNGYVFGTGTKLTVLG | 312000 | 
11 | E01 (KnotBody with EET 5-3 framing) (scFv, V domains shown) VH: EVQLVESGGGLVRPGGSLRLSCAASGFTFSSYAMSWVRQAPGKGLEWVSAISGSGGSTYYADSVKGRFTISRDNTKNSLYLQMTSLRADDTAFYYCVKDFGPGYGTGWFDYWGPGTLVTVSS VL: AVNWYQQLPGKAPKLLIYAAGGCGPNGFCGSGSDGGVCPRILMRCKQDSDCLAGCGIHSGVSDRFSDSKSGTSASLAISGLQSEDEADYYCAAWDDSLNGYVFGTGTKLTVLG |  | 128000
12 | F01 (KnotBody with EET 5-3 framing) (scFv, V domains shown) VH: EVQLVESGGGLVRPGGSLRLSCAASGFTFSSYAMSWVRQAPGKGLEWVSAISGSGGSTYYADSVKGRFTISRDNTKNSLYLQMTSLRADDTAFYYCVKDFGPGYGTGWFDYWGPGTLVTVSS VL: YLNWYQQKPGKAPKLLIDAAGECGPNGFCGSGSDGGVCPRINMRCKQDSDCLAGCGRDSGVPSRFSGSGSGTDFTLTISSLQPEDFATYYCQQSYSTPWTFGQGTKVEIKR |  | 102000
13 | E08 (KnotBody with EET 5-3 framing) (scFv, V domains shown) VH: EVQLVESGGGLVRPGGSLRLSCAASGFTFSSYAMSWVRQAPGKGLEWVSAISGSGGSTYYADSVKGRFTISRDNTKNSLYLQMTSLRADDTAFYYCVKDFGPGYGTGWFDYWGPGTLVTVSS VL: AVNWYQQLPGKAPKLLIYAAGGCGPNGFCGSGSDGGVCPRILMRCKQDSDCLAGCGIQSGIPERFSGSKSGTSASLAISGLRSEDEADYYCAAWDDNLSGYVFGTGTKLTVLG |  | 121000
14 | KB_A12_B-gal_E04 (scFv, V domains shown) VH: EVQLVESGGGLVRPGGSLRLSCAASGFTFSSYAMSWVRQAPGKGLEWVSAISGSGGSTYYADSVKGRFTISRDNTKNSLYLQMTSLRADDTAFYYCVKDFGPGYGTGWFDYWGPGTLVTVSS VL: AVNWYQQLPGKAPKLLIYAAGRCLATTSIRRPCKQDSDCLAGCVCGPNGFCGANSGVSDRFSAAKSGTSASLAINGLRSEDEADYYCAAWDDSLNGYVFGTGTKLTVLG | 523000 | 
15 | E05 (KnotBody with EET 5-3 framing) (scFv, V domains shown) VH: EVQLVESGGGLVRPGGSLRLSCAASGFTFSSYAMSWVRQAPGKGLEWVSAISGSGGSTYYADSVKGRFTISRDNTKNSLYLQMTSLRADDTAFYYCVKDFGPGYGTGWFDYWGPGTLVTVSS VL: AVNWYQQLPGKAPKLLIYAAGGCGPNGFCGSGSDGGVCPRILMRCKQDSDCLAGCGAQSGIPERFSGSKSGTSASLAISGLQSEDEAHYYCAAWDDSLNGYVFGTGTKVTVLG |  | 119000
